Laboratory results taken from the supplement of paper PMC12042874.
± gives the uncertainty stated by the source.

Experiment: amyloid nucleation score (Sup35N fusion, yeast selection) (log enrichment); library NNK1; higher = more nucleation; inactive = no reads after selection
Outline: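 For the nucleation score, DiMSum gave the log enrichment of output over input reads, centred on the mode score of non-aggregating sequences. Psi-negative yeast expressing Sup35N fused to peptides of 20 random codons were induced with 100 μM copper sulfate for 24 hours and grown 7 days at 30°C on medium lacking adenine and uracil. Input and output plasmid inserts were Illumina-sequenced, and sequences with under 100 input reads were excluded.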

Row | Substance | amyloid nucleation score
1 | ASPMVRISYLNDHKQLKKF | -0.414 ± 0.28
2 | SVNVRVTDYKYRGLFACAFG | 0.529 ± 0.58
3 | HYLVLYVIMYMFVQMSLPC | 2.14 ± 0.49
4 | WFFRLLAMSRRTEVAGTSPL | 0.941 ± 0.65
5 | LFLCRILYCLWVNVFLLGHE | 0.367 ± 0.32
6 | GHCGPEKREIDVAGVWVERS | -0.098 ± 1.3
7 | YHCLWGFVGVLKSDSLRDRR | 0.602 ± 0.38
8 | SLRSHML | 0.938 ± 0.98
9 | PQLTRSGQ | -0.14 ± 0.28
10 | LFILPCQVNLHECMVLCLFE | 5.91 ± 0.06
11 | FFWEY | -0.312 ± 1.5
12 | TWKAIWSEWYRTVPTGVLSN | 0.461 ± 0.42
13 | HWTTHESRKMVGQRFQPVGG | 0.078 ± 0.34
14 | SISAASCIHFRMDVVCKTDF | -0.519 ± 0.41
15 | NTYDHMTYNRGFRSM | inactive
16 | KKRICFMSLSQRWRSRTTCW | 0.164 ± 0.3
17 | LRIRYT | 2.42 ± 0.17
18 | VGNSSGWLTNHLAEKRGQTM | 0.268 ± 1.1
19 | WASELVRHHNDKINCSLRCG | -0.253 ± 0.84
20 | VNSNGTPCSMGIHMSGSYSP | 0.226 ± 0.48
21 | RAQYYYICRWRYYTWPVPR | -0.515 ± 1
22 | STNFLWTTFGFFHVCLDGAM | -0.218 ± 0.92
23 | TSNHML | 0.226 ± 0.61
24 | AFYLN | -0.055 ± 0.34
25 | TVLDFCFWYAGVVFKYARFV | -0.932 ± 0.39

Row | Substance | amyloid nucleation score
26 | LDQIQIFSEIGVFRLVCQHI | -0.164 ± 0.64
27 | VTFLFNFWHVFC | 6.95 ± 0.074
28 | CVSHNVILRK | 2.4 ± 0.092
29 | AIMCKYLRKLVLMFFSR | 0.811 ± 0.55
30 | MRLMVGYRRCFASLVKNVCT | -0.963 ± 1.8
31 | FEFIVMEIAC | -0.189 ± 0.35
32 | SNRGRNLGSYCVGNYFGCFT | -0.224 ± 1.7
33 | IRVSFCWSNLHNNYNSGRAT | 5.02 ± 0.085
34 | SHEGIIMLMLTHQFSW | 2.07 ± 0.14
35 | PRFKTMVVTHFLSFNFYGWN | -0.505 ± 0.39
36 | GGFFRHGEIDMYRCSSEWFL | 0.77 ± 0.97
37 | VMHYYTSVYDVNYVRYSPPW | 1.16 ± 0.35
38 | EKRFFVSLVNVYLDL | 4.57 ± 0.071
39 | LYYFCLAINFSLGEGTAFVQ | -0.133 ± 0.84
40 | IRGFSSSISLWWVDGTVANV | -0.422 ± 0.49
41 | ICLIAWGQ | 1.66 ± 0.41
42 | YGHLTAGGCWSGQTNNARLG | -0.488 ± 0.9
43 | WCVYNFSCALISPY | 6.018 ± 0.054
44 | VSQHSERQGAVCNRCFIVWR | 6.101 ± 0.057
45 | YNEERGCSAC | -0.209 ± 0.33
46 | GLGCYVKNKTHESYARSTAH | -0.671 ± 0.56
47 | FIVLAYCLSFWVAIYPEVHM | 0.581 ± 0.73
48 | AMGARMFRNYRTACAHLLQW | 0.019 ± 1
49 | SSILISFI | -0.471 ± 0.94
50 | GRPNATIKNLVIFSEMFYSL | 4.68 ± 0.063

Row | Substance | amyloid nucleation score
51 | AVRDDMDY | -0.059 ± 0.22
52 | GDYVRWVRSGYLMQLLNEDS | -0.379 ± 0.75
53 | YFVLKCSC | 2.05 ± 0.49
54 | STCLGGERSYRYVMWLVLVV | 0.148 ± 0.42
55 | PSGWTFSRGLSCDNVSRLSS | 1.05 ± 0.61
56 | KVLGWNMGVHFNHGGRSFVM | 0.461 ± 0.54
57 | FCNVQIFFAVITHPFYSTLL | 1.48 ± 0.24
58 | EVATGSGERIQLCQVQSVNT | 1.6 ± 0.55
59 | NCLNAMVWSLLMLTDHLAPQ | -0.157 ± 0.72
60 | FSACLSNIYD | inactive
61 | RFLLLPAHPGPGVSMVYRYL | 0.077 ± 0.9
62 | NCVTTNIGFN | 0.124 ± 0.9
63 | LYCWVFSLSSMESNWLGQHT | -0.012 ± 0.29
64 | VMGIDSFTYAG | -0.315 ± 0.54
65 | TWDFSFDQGIKY | -0.125 ± 0.32
66 | NYCGLGSMYL | 1.1 ± 0.8
67 | FIHAMAMCILGEHSI | 0.686 ± 0.47
68 | RYARLMYASACCSSC | -0.404 ± 0.52
69 | GKHGQDFNSYRRVWLKSYLC | 1.07 ± 0.52
70 | VYKFIFAYYYSEDVPFNRPL | inactive
71 | IFITCIARTLYHAGNLQRNL | 2 ± 0.11
72 | LYKLTEFQAYKVIRPSACCV | -1.13 ± 2.4
73 | KRNRYTKGTHHTSFMNFYFC | 8.37 ± 0.066
74 | YLLTHQRKTSLQE | 1.06 ± 0.97
75 | RWAWVDYNLCRVCLTKYS | -0.161 ± 0.58

Row | Substance | amyloid nucleation score
76 | IQSSPIR | 0.464 ± 0.88
77 | VALWYFCCVVAYYGGARLVS | 2.06 ± 0.33
78 | STGPAFDSKGVSTAMSRASF | inactive
79 | GINNIYGLRYRHMPTSSIVA | 1.88 ± 0.39
80 | LQWNRERGLTLLSWLRYKSI | -0.505 ± 1.5
81 | VNRFCSVQVDS | 0.074 ± 0.47
82 | HNRMMMRADVTAVDTRYFTS | -1.57 ± 1.3
83 | FQDLSLAVSQCLPCVIIGDC | -0.131 ± 0.44
84 | ISNCYQVKALFVSHFLIRDR | 4.29 ± 0.047
85 | MNVTCDGRMGIQVDPVRYNR | -0.122 ± 1.4
86 | ANTLRKMNLLSELVLNLLTG | 3.3 ± 0.14
87 | TLVKVRSELYSGRDAYELVS | 0.035 ± 0.26
88 | DWMLISE | -0.084 ± 0.28
89 | FRTRGFLHSKVLVRLQYWIK | 0.494 ± 0.5
90 | RKLLSISL | 0.22 ± 0.71
91 | NTGREVFIRIMCPL | -0.212 ± 0.73
92 | RKYEGGRAKVWHGPCSVS | 1.07 ± 0.76
93 | RPFLIIKLLGVGLSVKPNCG | -0.158 ± 0.64
94 | NKFGQSAGYLSTFACAVGIG | 0.595 ± 0.39
95 | FCMWKGAFDRDYVGNGVAGS | inactive
96 | DYDTMSNFSDSALCTPIRCD | 0.485 ± 0.35
97 | YLLPEPKQCVSPE | 0.625 ± 0.5
98 | SMCNEVDGTDGYAAIGLYMY | -1.65 ± 2.4
99 | ILILRGNCR | -0.165 ± 0.73
100 | MLTWCPTSEKVVLLFRSQRG | -0.383 ± 1.7

Row | Substance | amyloid nucleation score
101 | LNINSFFVFGT | 4.97 ± 0.057
102 | RCNSSSIEWTVCILFDLLFY | -0.122 ± 1
103 | LQNETLSMSMRLLMAYFIKL | 0.13 ± 1.2
104 | GPDRCDRWEPRCCAKSRRER | -0.061 ± 0.42
105 | FILSEFSNRF | 0.104 ± 0.34
106 | WCSTQLVRKIKVFEKSERGV | -1.07 ± 2.1
107 | SMTVNDTLLRLRVGSAILYF | -0.852 ± 0.4
108 | FVLGDCCDIFSSYNQIMYIS | 3.26 ± 0.12
109 | QIVCGSMWMLDKI | -0.297 ± 0.49
110 | RCCIIDLFS | 4.87 ± 0.066
111 | CLRGLNAPLYNRCFAGILLG | -0.6 ± 0.36
112 | FIYLENAS | 0.532 ± 0.38
113 | EIVSIS | -0.42 ± 1.2
114 | ALSGCERRNHLSCRSNLRDG | -0.542 ± 0.91
115 | GNIFAYGT | -0.611 ± 0.76
116 | HVTVNGWGAVSFLKNAKVVR | inactive
117 | VTIYFILRNGGRVSESLNPW | 7.19 ± 0.084
118 | MSDSRIVTVIVRRQPVSQRS | 1.33 ± 0.84
119 | VITSVGWMLVYENQFTNLHL | 6.855 ± 0.048
120 | VIFYTFMVRTITACCLKLWV | inactive
121 | QGISPLRWAVLYRFMYGCVR | -0.209 ± 0.57
122 | FEIMQPNAHISCHYCYLVNM | 5.01 ± 0.059
123 | SLFRVDYIDRFLSQFVEYNG | 0.333 ± 0.55
124 | GFDIMYLILTPSCPATQSGM | inactive
125 | IEDTGIYRSVTFTVAMTYTV | -0.373 ± 0.38

Row | Substance | amyloid nucleation score
126 | SFISKLLNYVVAFCVVCDEI | 0.127 ± 0.5
127 | ESSNSLL | -0.244 ± 0.4
128 | VPCLVRA | 0.506 ± 0.99
129 | RLASYHITVYRHTRSIVQ | 0.612 ± 0.29
130 | MRLCPEPASKSDMPFSRDLR | 0.268 ± 1.4
131 | RDWTRGHACRYCSWQWVARG | 0.529 ± 0.88
132 | TTLVLTADLAVNPRRWWTMI | 0.373 ± 0.43
133 | NYFNL | 0.21 ± 0.46
134 | MSQDR | -0.061 ± 0.94
135 | ICTFVMKLTAFVIIVLVFFH | -0.125 ± 0.26
136 | VSYKCSVRFLCIGRLRGVLF | -0.197 ± 0.28
137 | STSMDPLYYDYDRLYKIHDK | 0.484 ± 0.61
138 | WHQEWRKWADKGLAIRT | 0.836 ± 0.97
139 | FDCVMLISHHCVILCCFSDM | 0.205 ± 1.1
140 | FLTTLGWSYHRQNQLRMPRF | 2.24 ± 0.16
141 | YILACAKVTEDPVSVSMKCA | -0.278 ± 0.74
142 | LWRLANWRM | -0.46 ± 0.27
143 | RINVSGWQLQATLSFLLAFS | 0.289 ± 0.5
144 | CNSVDVVLISATACYSWSTL | 0.552 ± 0.48
145 | EERDFKEPSRLVIIKLTVMF | 3.18 ± 0.12
146 | FGLIGTPCERMVSGLEV | -0.806 ± 0.88
147 | SFYYWHPIALVWYGGARYKC | 1.35 ± 0.43
148 | HNSNECYYF | -1.06 ± 2.4
149 | VYRIAMIF | 1.22 ± 0.31
150 | KKVGRHFDLCALDRTQSGCW | -0.162 ± 0.39

Row | Substance | amyloid nucleation score
151 | WSDYVDNPSVSARRSRQFRL | -1.21 ± 1.6
152 | AESSLLSLIVFNTNYFEAGQ | 6.753 ± 0.046
153 | FMDMDRLMSRGLQVNKGVML | -0.228 ± 0.68
154 | QYSHDRRFLPGMVHVRLFLE | 0.662 ± 0.38
155 | RPVWHSFHMVFWNSASY | 0.172 ± 0.45
156 | VAFWFVLGWKGSLYYKGLAD | 0.334 ± 1.1
157 | MFVFFSTMSIR | inactive
158 | LPFMTHVHVLSRQKTKVKGR | -0.041 ± 0.28
159 | NPAEL | 0.222 ± 0.54
160 | SRRWGLN | inactive
161 | SFVIYSKKCKNGSVNTVACS | 0.142 ± 0.62
162 | RHALGLFRSGLGMDMDDNGS | inactive
163 | PAFFCFWNNLSCVSTWSYLV | 2.44 ± 0.088
164 | FGPCMRFDCCNRGST | 4.72 ± 0.082
165 | SNPIRTNV | -0.533 ± 0.38
166 | RLFHIGGRGVRYYRLDVAMH | -0.264 ± 1.2
167 | YSVSCSVF | -0.341 ± 0.31
168 | VVTWVYASSVVLSSLPREGA | -0.115 ± 0.26
169 | RDAFYRGRTRFNQRRYMYRR | -0.335 ± 0.53
170 | MFISIGLPPQRRQDSHGWGG | 0.532 ± 0.37
171 | VRVPLRSKMSNPRLMSRQAA | 0.089 ± 0.49
